Assay results taken from the supplement of paper PMC5998384.

Experiments:
HeLa Kyoto [1] = assay: solubility in G1/S (NP-40 vs SDS abundance) (log2 ratio); higher = more soluble; conditions: cell cycle stage: G1/S
HeLa Kyoto [2] = assay: melting temperature (median over replicates), in situ; higher = more thermally stable
HeLa Kyoto [3] = assay: solubility change mitosis vs G1/S (difference of NP-40 vs SDS log2 ratios) (log2 ratio difference); higher = more soluble in mitosis
HeLa Kyoto [4] = assay: thermal stability score vs G1/S (z-score of summed log2 fold changes over temperatures); higher = more thermally stable than in G1/S
[5] = cell cycle stage: early G1 (4.5 h after nocodazole release)
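For melting temperature (median over replicates), in situ in this document: HeLa Kyoto cells synchronized by double thymidine or nocodazole block, proteins quantified by TMT10plex mass spectrometry, three independent biological replicates.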
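For solubility change mitosis vs G1/S (difference of NP-40 vs SDS log2 ratios) in this document: synchronized HeLa Kyoto cells (double thymidine block for G1/S, nocodazole release for mitosis), protein amounts in NP-40 versus SDS lysates quantified by mass spectrometry, three biological replicates.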
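For solubility in G1/S (NP-40 vs SDS abundance) in this document: HeLa Kyoto cells arrested at G1/S by double thymidine block, proteins quantified by TMT10plex mass spectrometry in mild NP-40 versus SDS extracts, three biological replicates.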
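For thermal stability score vs G1/S (z-score of summed log2 fold changes over temperatures) in this document: synchronized HeLa Kyoto cells, proteins quantified by TMT10plex mass spectrometry, three biological replicates, mitosis taken 0.5 h after nocodazole release, G1/S directly after double thymidine block.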

COPE, sequence (chain, as listed by the source): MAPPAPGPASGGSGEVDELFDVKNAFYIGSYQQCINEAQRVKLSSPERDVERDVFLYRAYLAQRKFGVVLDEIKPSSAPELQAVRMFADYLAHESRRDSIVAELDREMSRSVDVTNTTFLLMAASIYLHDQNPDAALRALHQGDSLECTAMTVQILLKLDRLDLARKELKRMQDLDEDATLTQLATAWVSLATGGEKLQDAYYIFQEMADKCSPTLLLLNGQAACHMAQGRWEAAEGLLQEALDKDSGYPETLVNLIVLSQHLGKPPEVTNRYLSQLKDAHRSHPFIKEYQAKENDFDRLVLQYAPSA

| Substance | solubility in G1/S (log2) (HeLa Kyoto [1]) | melting temperature (HeLa Kyoto [2]; cell cycle stage: G1/S) | melting temperature (HeLa Kyoto [2]; cell cycle stage: mitosis) | solubility change mitosis (log2) (HeLa Kyoto [3]) | thermal stability score (HeLa Kyoto [4]; [5]) | thermal stability score (HeLa Kyoto [4]; cell cycle stage: mitosis) |
| --- | --- | --- | --- | --- | --- | --- |
| MALDFLAGCAGGVAGVLVGHPFDTVKVRLQVQSVEKPQYRGTLHCFKSIIKQESVLGLYKGLGSPLMGLTFINALVFGVQGNTLRALGHDSPLNQFLAGAAAGAIQCVICCPMELAKTRLQLQDAGPARTYKGSLDCLAQIYGHEGLRGVNRGMVSTLLRETPSFGVYFLTYDALTRALGCEPGDRLLVPKLLLAGGTSGIVSWLSTYPVDVVKSRLQADGLRGAPRYRGILDCVHQSYRAEGWRVFTRGLASTLLRAFPVNAATFATVTVVLTYARGEEAGPEGEAVPAAPAGPALAQPSSL [SLC25A29] | 0.0296 | 53.2 °C | 52.3 °C | -0.0388 | -0.402 | -0.997 |
| METQLSNGPTCNNTANGPTTINNNCSSPVDSGNTEDSKTNLIVNYLPQNMTQEELKSLFGSIGEIESCKLVRDKITGQSLGYGFVNYIDPKDAEKAINTLNGLRLQTKTIKVSYARPSSASIRDANLYVSGLPKTMTQKELEQLFSQYGRIITSRILVDQVTGISRGVGFIRFDKRIEAEEAIKGLNGQKPPGATEPITVKFANNPSQKTNQAILSQLYQSPNRRYPGPLAQQAQRFRLDNLLNMAYGVKRFSPMTIDGMTSLAGINIPGHPGTGWCIFVYNLAPDADESILWQMFGPFGAVTNVKVIRDFNTNKCKGFGFVTMTNYDEAAMAIASLNGYRLGDRVLQVSFKTNKTHKA [ELAVL2] | 0.208 | 52.6 °C | 52.2 °C | -0.0286 | -0.26 | -1.01 |
| TXNDC5 | 0.348 | 55.3 °C | 57.3 °C | -0.0668 | 3.49 | 3.79 |
| COPE | 0.212 | 50.3 °C | 50.9 °C | 0.0106 | -0.526 | -0.936 |
| MSSSGLNSEKVAALIQKLNSDPQFVLAQNVGTTHDLLDICLKRATVQRAQHVFQHAVPQEGKPITNQKSSGRCWIFSCLNVMRLPFMKKLNIEEFEFSQSYLFFWDKVERCYFFLSAFVDTAQRKEPEDGRLVQFLLMNPANDGGQWDMLVNIVEKYGVIPKKCFPESYTTEATRRMNDILNHKMREFCIRLRNLVHSGATKGEISATQDVMMEEIFRVVCICLGNPPETFTWEYRDKDKNYQKIGPITPLEFYREHVKPLFNMEDKICLVNDPRPQHKYNKLYTVEYLSNMVGGRKTLYNNQPIDFLKKMVAASIKDGEAVWFGCDVGKHFNSKLGLSDMNLYDHELVFGVSLKNMNKAERLTFGESLMTHAMTFTAVSEKDDQDGAFTKWRVENSWGEDHGHKGYLCMTDEWFSEYVYEVVVDRKHVPEEVLAVLEQEPIILPAWDPMGALAE [BLMH] | -0.128 | 58.1 °C | 59 °C | -0.251 | -1.55 | -0.29 |
| MSDLLLLGLIGGLTLLLLLTLLAFAGYSGLLAGVEVSAGSPPIRNVTVAYKFHMGLYGETGRLFTESCSISPKLRSIAVYYDNPHMVPPDKCRCAVGSILSEGEESPSPELIDLYQKFGFKVFSFPAPSHVVTATFPYTTILSIWLATRRVHPALDTYIKERKLCAYPRLEIYQEDQIHFMCPLARQGDFYVPEMKETEWKWRGLVEAIDTQVDGTGADTMSDTSSVSLEVSPGSRETSAATLSPGASSRGWDDGDTRSEHSYSESGASGSSFEELDLEGEGPLGESRLDPGTEPLGTTKWLWEPTAPEKGKE [TEX264] | -0.0622 | 51.2 °C | 51.2 °C | -0.257 | 0.0754 | -0.347 |
| MGDPERPEAAGLDQDERSSSDTNESEIKSNEEPLLRKSSRRFVIFPIQYPDIWKMYKQAQASFWTAEEVDLSKDLPHWNKLKADEKYFISHILAFFAASDGIVNENLVERFSQEVQVPEARCFYGFQILIENVHSEMYSLLIDTYIRDPKKREFLFNAIETMPYVKKKADWALRWIADRKSTFGERVVAFAAVEGVFFSGSFAAIFWLKKRGLMPGLTFSNELISRDEGLHCDFACLMFQYLVNKPSEERVREIIVDAVKIEQEFLTEALPVGLIGMNCILMKQYIEFVADRLLVELGFSKVFQAENPFDFMENISLEGKTNFFEKRVSEYQRFAVMAETTDNVFTLDADF [RRM2B] | 0.00384 | 56.5 °C | 54.2 °C | -0.132 | -1.2 | 0.292 |
| MLNMWKVRELVDKATNVVMNYSEIESKVREATNDDPWGPSGQLMGEIAKATFMYEQFPELMNMLWSRMLKDNKKNWRRVYKSLLLLAYLIRNGSERVVTSAREHIYDLRSLENYHFVDEHGKDQGINIRQKVKELVEFAQDDDRLREERKKAKKNKDKYVGVSSDSVGGFRYSERYDPEPKSKWDEEWDKNKSAFPFSDKLGELSDKIGSTIDDTISKFRRKDREDSPERCSDSDEEKKARRGRSPKGEFKDEEETVTTKHIHITQATETTTTRHKRTANPSKTIDLGAAAHYTGDKASPDQNASTHTPQSSVKTSVPSSKSSGDLVDLFDGTSQSTGGSADLFGGFADFGSAAASGSFPSQVTATSGNGDFGDWSAFNQAPSGPVASSGEFFGSASQPAVELVSGSQSALGPPPAASNSSDLFDLMGSSQATMTSSQSMNFSMMSTNTVGLGLPMSRSQNTDMVQKSVSKTLPSTWSDPSVNISLDNLLPGMQPSKPQQPSLNTMIQQQNMQQPMNVMTQSFGAVNLSSPSNMLPVRPQTNALIGGPMPMSMPNVMTGTMGMAPLGNTPMMNQSMMGMNMNIGMSAAGMGLTGTMGMGMPNIAMTSGTVQPKQDAFANFANFSK [CLINT1] | -0.186 | 51.6 °C | 51.9 °C | -0.108 | 1.76 | 3.07 |
| MKLKQRVVLLAILLVIFIFTKVFLIDNLDTSAANREDQRAFHRMMTGLRVELAPKLDHTLQSPWEIAAQWVVPREVYPEETPELGAVMHAMATKKIIKADVGYKGTQLKALLILEGGQKVVFKPKRYSRDHVVEGEPYAGYDRHNAEVAAFHLDRILGFHRAPLVVGRFVNLRTEIKPVATEQLLSTFLTVGNNTCFYGKCYYCRETEPACADGDIMEGSVTLWLPDVWPLQKHRHPWGRTYREGKLARWEYDESYCDAVKKTSPYDSGPRLLDIIDTAVFDYLIGNADRHHYESFQDDEGASMLILLDNAKSFGNPSLDERSILAPLYQCCIIRVSTWNRLNYLKNGVLKSALKSAMAHDPISPVLSDPHLDAVDQRLLSVLATVKQCTDQFGMDTVLVEDRMPLSHL [FAM20B] | -0.162 | 51.8 °C | 53.3 °C | 0.0415 | 2.65 | 2.53 |
| MEYMAESTDRSPGHILCCECGVPISPNPANICVACLRSKVDISQGIPKQVSISFCKQCQRYFQPPGTWIQCALESRELLALCLKKIKAPLSKVRLVDAGFVWTEPHSKRLKVKLTIQKEVMNGAILQQVFVVDYVVQSQMCGDCHRVEAKDFWKAVIQVRQKTLHKKTFYYLEQLILKYGMHQNTLRIKEIHDGLDFYYSSKQHAQKMVEFLQCTVPCRYKASQRLISQDIHSNTYNYKSTFSVEIVPICKDNVVCLSPKLAQSLGNMNQICVCIRVTSAIHLIDPNTLQVADIDGSTFWSHPFNSLCHPKQLEEFIVMECSIVQDIKRAAGAGMISKKHTLGEVWVQKTSEMNTDKQYFCRTHLGHLLNPGDLVLGFDLANCNLNDEHVNKMNSDRVPDVVLIKKSYDRTKRQRRRNWKLKELARERENMDTDDERQYQDFLEDLEEDEAIRKNVNIYRDSAIPVESDTDDEGAPRISLAEMLEDLHISQDATGEEGASMLT [NMD3] | -0.119 | 52.2 °C | 52.2 °C | -0.0927 | -1.14 | -1.18 |
| MSHTEVKLKIPFGNKLLDAVCLVPNKSLTYGIILTHGASGDMNLPHLMSLASHLASHGFFCLRFTCKGLNIVHRIKAYKSVLNYLKTSGEYKLAGVFLGGRSMGSRAAASVMCHIEPDDGDDFVRGLICISYPLHHPKQQHKLRDEDLFRLKEPVLFVSGSADEMCEKNLLEKVAQKMQAPHKIHWIEKANHSMAVKGRSTNDVFKEINTQILFWIQEITEMDKKCH [TEX30] | 0.199 | 48.7 °C | 49 °C | -0.146 | 0.36 | 0.539 |
| SLC35E1 | -0.14 | 51.3 °C | 52 °C | -0.172 | 0.109 | 0.648 |
| MASSSVPPATVSAATAGPGPGFGFASKTKKKHFVQQKVKVFRAADPLVGVFLWGVAHSINELSQVPPPVMLLPDDFKASSKIKVNNHLFHRENLPSHFKFKEYCPQVFRNLRDRFGIDDQDYLVSLTRNPPSESEGSDGRFLISYDRTLVIKEVSSEDIADMHSNLSNYHQYIVKCHGNTLLPQFLGMYRVSVDNEDSYMLVMRNMFSHRLPVHRKYDLKGSLVSREASDKEKVKELPTLKDMDFLNKNQKVYIGEEEKKIFLEKLKRDVEFLVQLKIMDYSLLLGIHDIIRGSEPEEEAPVREDESEVDGDCSLTGPPALVGSYGTSPEGIGGYIHSHRPLGPGEFESFIDVYAIRSAEGAPQKEVYFMGLIDILTQYDAKKKAAHAAKTVKHGAGAEISTVHPEQYAKRFLDFITNIFA [PIP4K2C] | 0.315 | 49 °C | 48.7 °C | -0.07 | 0.688 | 2 |
| MVPRLLLRAWPRGPAVGPGAPSRPLSAGSGPGQYLQRSIVPTMHYQDSLPRLPIPKLEDTIRRYLSAQKPLLNDGQFRKTEQFCKSFENGIGKELHEQLVALDKQNKHTSYISGPWFDMYLSARDSVVLNFNPFMAFNPDPKSEYNDQLTRATNMTVSAIRFLKTLRAGLLEPEVFHLNPAKSDTITFKRLIRFVPSSLSWYGAYLVNAYPLDMSQYFRLFNSTRLPKPSRDELFTDDKARHLLVLRKGNFYIFDVLDQDGNIVSPSEIQAHLKYILSDSSPAPEFPLAYLTSENRDIWAELRQKLMSSGNEESLRKVDSAVFCLCLDDFPIKDLVHLSHNMLHGDGTNRWFDKSFNLIIAKDGSTAVHFEHSWGDGVAVLRFFNEVFKDSTQTPAVTPQSQPATTDSTVTVQKLNFELTDALKTGITAAKEKFDATMKTLTIDCVQFQRGGKEFLKKQKLSPDAVAQLAFQMAFLRQYGQTVATYESCSTAAFKHGRTETIRPASVYTKRCSEAFVREPSRHSAGELQQMMVECSKYHGQLTKEAAMGQGFDRHLFALRHLAAAKGIILPELYLDPAYGQINHNVLSTSTLSSPAVNLGGFAPVVSDGFGVGYAVHDNWIGCNVSSYPGRNAREFLQCVEKALEDMFDALEGKSIKS [CPT2] | 0.115 | 50 °C | 50 °C | -0.135 | -0.368 | 0.841 |
| MAPGVARGPTPYWRLRLGGAALLLLLIPVAAAQEPPGAACSQNTNKTCEECLKNVSCLWCNTNKACLDYPVTSVLPPASLCKLSSARWGVCWVNFEALIITMSVVGGTLLLGIAICCCCCCRRKRSRKPDRSEEKAMREREERRIRQEERRAEMKTRHDEIRKKYGLFKEENPYARFENN [PTTG1IP] | -0.362 | 56.3 °C |  | -0.143 | -5.97 | -6.48 |
| MSATAAARKRGKPASGAGAGAGAGKRRRKADSAGDRGKSKGGGKMNEEISSDSESESLAPRKPEEEEEEELEETAQEKKLRLAKLYLEQLRQQEEEKAEARAFEEDQVAGRLKEDVLEQRGRLQKLVAKEIQAPASADIRVLRGHQLSITCLVVTPDDSAIFSAAKDCSIIKWSVESGRKLHVIPRAKKGAEGKPPGHSSHVLCMAISSDGKYLASGDRSKLILIWEAQSCQHLYTFTGHRDAVSGLAFRRGTHQLYSTSHDRSVKVWNVAENSYVETLFGHQDAVAALDALSRECCVTAGGRDGTVRVWKIPEESQLVFYGHQGSIDCIHLINEEHMVSGADDGSVALWGLSKKRPLALQREAHGLRGEPGLEQPFWISSVAALLNTDLVATGSHSSCVRLWQCGEGFRQLDLLCDIPLVGFINSLKFSSSGDFLVAGVGQEHRLGRWWRIKEARNSVCIIPLRRVPVPPAAGS [RRP9] | -1.11 | 59.7 °C | 56.5 °C | 0.596 | -3.65 | -9.84 |
